Experimental data: US20140105889A1 (published 2014)
Numbering of substitutions follows the chain as printed. In names and notes the source's numbering stands.

B1: IL6R-F652/IL6R-L (antibody, human IgG1)
heavy: QVQLQESGPGLVKPSETLSLTCAVSGHSISHDHAWSWVRQPPGEGLEWIGFISYSGITNYNPSLQGRVTISRDNSKNTLYLQMNSLRAEDTAVYYCARSLARTTAMDYWGEGTLVTVSSASTKGPSVFPLAPSSKSTSGGTAALGCLVKDYFPEPVTVSWNSGALTSGVHTFPAVLQSSGLYSLSSVVTVPSSSLGTQTYICNVNHKPSNTKVDKKVEPKSCDKTHTCPPCPAPELLGGDSVFLFPPKPKDTLYISRTPEVTCVVVDVSHEDPEVKFNWYVDGVEVHNAKTKPREEQYNSTYRVVSVLTVLHQDWLNGKEYKCKVSNKALPAPIEKTISKAKGQPREPQVYTLPPSRDELTKNQVSLTCLVKGFYPSDIAVEWESNGQPENNYKTTPPVLDSDGSFFLYSKLTVDKSRWQQGNVFSCSVMHEALHYHYTQKSLSLSP
light: DIQMTQSPSSLSASVGDRVTITCRASQDISSYLNWYQQKPGKAPKLLIYYTSRLHSGVPSRFSGSGSGTDFTFTISSLQPEDIATYYCQQGNTLPYTFGQGTKVEIK
notes: Anti-human IL-6 receptor IgG1 antibody; H chain is IL6R-F11 (M252Y/N434Y in IL6R-G1d) with P238D (EU numbering); Control antibody of the PD variants; copies: 2 + 2
B2: IL6R-PD080/IL6R-L (antibody)
heavy: B1 heavy with G239D
light: B1 light
notes: PD variant: P238D/G237D introduced into IL6R-F11 (EU numbering); copies: 2 + 2
B3: IL6R-PD043/IL6R-L (antibody, human IgG1)
heavy: B1 heavy with L236Y
light: B1 light
notes: PD variant: P238D/L234Y introduced into IL6R-F11 (EU numbering); copies: 2 + 2
B4: IL6R-PD042/IL6R-L (antibody, human IgG1)
heavy: B1 heavy with L236W
light: B1 light
notes: PD variant: P238D/L234W introduced into IL6R-F11 (EU numbering); copies: 2 + 2
B5: IL6R-BP087/IL6R-L (antibody, human IgG1)
heavy: B1 heavy with L236Y, Y254M, A332K, Y436N, K441E
light: B1 light
notes: copies: 2 + 2
B6: IL6R-PD079/IL6R-L (antibody, human IgG1)
heavy: B1 heavy with G239A
light: B1 light
notes: PD variant: P238D/G237A introduced into IL6R-F11 (EU numbering); copies: 2 + 2
B7: GpH7-B3 variant P329S / GpL16-k0 (antibody, human IgG1)
heavy: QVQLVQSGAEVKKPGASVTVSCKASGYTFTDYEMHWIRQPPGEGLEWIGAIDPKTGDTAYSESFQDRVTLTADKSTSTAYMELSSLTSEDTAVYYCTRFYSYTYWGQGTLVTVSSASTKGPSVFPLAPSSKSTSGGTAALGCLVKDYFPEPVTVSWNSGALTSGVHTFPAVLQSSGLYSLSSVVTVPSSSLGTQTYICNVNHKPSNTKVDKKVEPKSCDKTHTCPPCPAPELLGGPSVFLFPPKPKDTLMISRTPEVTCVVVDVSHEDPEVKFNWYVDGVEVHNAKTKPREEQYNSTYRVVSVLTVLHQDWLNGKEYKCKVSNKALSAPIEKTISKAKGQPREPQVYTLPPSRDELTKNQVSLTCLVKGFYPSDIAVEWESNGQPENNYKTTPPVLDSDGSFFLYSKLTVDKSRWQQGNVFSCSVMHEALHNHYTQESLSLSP
light: DIVMTQSPLSLPVTPGEPASISCQASESLVHSNRNTYLHWYLQKPGQSPQLLIYKVSNRFSGVPDRFSGSGSGTDFTLKISRVEAEDVGVYYCSQNTHVPPTFGQGTKVEIE
notes: Anti-glypican-3 IgG1; constant region B3 = G1d with K439E
B8: GpH7-B3 variant I332P / GpL16-k0 (antibody, human IgG1)
heavy: not shown
light: B7 light
notes: as for B7
B9: GpH7-B3 variant P329G / GpL16-k0 (antibody, human IgG1)
heavy: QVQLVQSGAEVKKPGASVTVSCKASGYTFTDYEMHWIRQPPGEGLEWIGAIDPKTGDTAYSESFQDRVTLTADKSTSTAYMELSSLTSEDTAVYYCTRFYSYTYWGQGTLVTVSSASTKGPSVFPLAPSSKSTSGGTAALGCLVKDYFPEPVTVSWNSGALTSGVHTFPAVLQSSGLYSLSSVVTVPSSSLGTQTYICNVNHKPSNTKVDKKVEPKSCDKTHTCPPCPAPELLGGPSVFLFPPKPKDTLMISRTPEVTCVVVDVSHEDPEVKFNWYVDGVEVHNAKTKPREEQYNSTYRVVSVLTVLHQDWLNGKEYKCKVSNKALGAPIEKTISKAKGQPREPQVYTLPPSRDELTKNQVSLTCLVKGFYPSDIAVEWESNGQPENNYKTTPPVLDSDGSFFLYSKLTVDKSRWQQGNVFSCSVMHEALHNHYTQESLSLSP
light: B7 light
notes: as for B7
B10: GpH7-B3 variant P331R / GpL16-k0 (antibody, human IgG1)
heavy: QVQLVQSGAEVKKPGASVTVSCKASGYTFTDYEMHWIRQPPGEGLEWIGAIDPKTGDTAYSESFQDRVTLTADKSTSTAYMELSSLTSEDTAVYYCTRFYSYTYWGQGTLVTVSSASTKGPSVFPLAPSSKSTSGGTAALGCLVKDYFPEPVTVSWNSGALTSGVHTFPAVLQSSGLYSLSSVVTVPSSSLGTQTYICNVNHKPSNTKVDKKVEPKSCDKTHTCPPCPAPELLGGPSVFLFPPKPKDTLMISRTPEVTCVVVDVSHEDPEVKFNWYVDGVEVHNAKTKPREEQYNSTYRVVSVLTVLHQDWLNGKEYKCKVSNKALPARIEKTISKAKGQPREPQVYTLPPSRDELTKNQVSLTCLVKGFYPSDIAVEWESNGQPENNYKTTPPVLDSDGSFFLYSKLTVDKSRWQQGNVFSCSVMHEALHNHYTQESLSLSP
light: B7 light
notes: as for B7
B11: GpH7-B3 variant A330P / GpL16-k0 (antibody, human IgG1)
heavy: not shown
light: B7 light
notes: as for B7
B12: GpH7-B3 variant P329W / GpL16-k0 (antibody, human IgG1)
heavy: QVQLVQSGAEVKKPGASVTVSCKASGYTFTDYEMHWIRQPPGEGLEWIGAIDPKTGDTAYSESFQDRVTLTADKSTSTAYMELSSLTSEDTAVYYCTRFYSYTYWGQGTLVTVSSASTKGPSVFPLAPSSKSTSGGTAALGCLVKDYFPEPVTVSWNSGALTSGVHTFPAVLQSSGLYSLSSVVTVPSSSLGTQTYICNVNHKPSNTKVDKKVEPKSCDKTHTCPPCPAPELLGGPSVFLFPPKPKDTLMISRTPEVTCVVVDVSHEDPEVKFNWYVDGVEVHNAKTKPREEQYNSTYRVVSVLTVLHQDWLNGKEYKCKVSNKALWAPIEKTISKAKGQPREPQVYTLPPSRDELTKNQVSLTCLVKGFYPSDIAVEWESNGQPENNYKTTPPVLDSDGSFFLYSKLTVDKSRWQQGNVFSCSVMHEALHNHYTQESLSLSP
light: B7 light
notes: as for B7
B13: GpH7-B3 variant P329E / GpL16-k0 (antibody, human IgG1)
heavy: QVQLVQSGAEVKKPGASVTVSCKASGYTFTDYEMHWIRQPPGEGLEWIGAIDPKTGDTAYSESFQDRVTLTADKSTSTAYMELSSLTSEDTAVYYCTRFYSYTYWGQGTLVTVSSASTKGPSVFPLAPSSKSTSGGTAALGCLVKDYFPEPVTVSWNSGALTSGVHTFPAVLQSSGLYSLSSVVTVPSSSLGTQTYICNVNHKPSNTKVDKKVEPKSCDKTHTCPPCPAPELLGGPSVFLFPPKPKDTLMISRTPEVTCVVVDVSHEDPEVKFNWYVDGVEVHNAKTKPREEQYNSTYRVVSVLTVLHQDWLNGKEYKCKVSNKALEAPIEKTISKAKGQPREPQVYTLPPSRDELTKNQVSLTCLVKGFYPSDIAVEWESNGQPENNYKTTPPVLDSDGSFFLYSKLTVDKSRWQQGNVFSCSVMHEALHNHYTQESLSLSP
light: B7 light
notes: as for B7
B14: GpH7-B3 variant I332R / GpL16-k0 (antibody, human IgG1)
heavy: not shown
light: B7 light
notes: as for B7
B15: GpH7-B3 variant A330S / GpL16-k0 (antibody, human IgG1)
heavy: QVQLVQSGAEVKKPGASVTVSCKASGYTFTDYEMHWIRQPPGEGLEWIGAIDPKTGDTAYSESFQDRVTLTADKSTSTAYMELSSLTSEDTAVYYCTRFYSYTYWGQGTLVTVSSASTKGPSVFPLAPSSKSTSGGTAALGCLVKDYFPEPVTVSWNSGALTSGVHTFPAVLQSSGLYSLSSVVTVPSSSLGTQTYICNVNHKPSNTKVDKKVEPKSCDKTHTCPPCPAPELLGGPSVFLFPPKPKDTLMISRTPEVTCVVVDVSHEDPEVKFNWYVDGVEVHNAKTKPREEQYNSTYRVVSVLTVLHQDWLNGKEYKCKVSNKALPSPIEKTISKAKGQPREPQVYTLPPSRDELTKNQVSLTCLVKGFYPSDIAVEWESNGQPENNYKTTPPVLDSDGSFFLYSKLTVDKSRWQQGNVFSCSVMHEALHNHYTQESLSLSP
light: B7 light
notes: as for B7
B16: GpH7-B3 variant P329D / GpL16-k0 (antibody, human IgG1)
heavy: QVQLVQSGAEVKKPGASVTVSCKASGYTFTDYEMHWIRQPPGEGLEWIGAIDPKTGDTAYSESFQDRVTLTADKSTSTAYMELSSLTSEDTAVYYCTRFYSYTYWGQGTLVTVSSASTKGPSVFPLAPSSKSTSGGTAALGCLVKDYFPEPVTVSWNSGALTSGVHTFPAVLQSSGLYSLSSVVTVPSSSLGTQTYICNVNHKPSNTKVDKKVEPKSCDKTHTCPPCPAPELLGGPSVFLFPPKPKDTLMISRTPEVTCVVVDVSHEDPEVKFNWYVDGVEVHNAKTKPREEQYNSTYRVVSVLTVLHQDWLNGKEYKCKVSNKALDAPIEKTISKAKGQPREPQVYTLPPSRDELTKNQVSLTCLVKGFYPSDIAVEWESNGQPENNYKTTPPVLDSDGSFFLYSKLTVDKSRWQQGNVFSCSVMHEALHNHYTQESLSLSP
light: B7 light
notes: as for B7
B17: GpH7-B3 variant P331K / GpL16-k0 (antibody, human IgG1)
heavy: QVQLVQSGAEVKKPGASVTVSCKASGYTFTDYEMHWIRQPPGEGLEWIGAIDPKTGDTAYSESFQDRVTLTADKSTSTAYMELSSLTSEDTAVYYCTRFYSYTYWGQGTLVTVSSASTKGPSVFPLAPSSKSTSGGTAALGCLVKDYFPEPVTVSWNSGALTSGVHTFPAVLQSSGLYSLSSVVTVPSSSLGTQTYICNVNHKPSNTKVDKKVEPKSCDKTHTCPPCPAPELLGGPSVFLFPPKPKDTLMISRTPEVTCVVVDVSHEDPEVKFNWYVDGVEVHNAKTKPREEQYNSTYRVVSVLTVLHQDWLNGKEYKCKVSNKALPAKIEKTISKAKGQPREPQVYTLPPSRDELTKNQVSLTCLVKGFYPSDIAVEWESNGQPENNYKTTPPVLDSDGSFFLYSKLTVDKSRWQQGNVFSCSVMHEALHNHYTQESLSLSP
light: B7 light
notes: as for B7
B18: GpH7-B3 variant P329Y / GpL16-k0 (antibody, human IgG1)
heavy: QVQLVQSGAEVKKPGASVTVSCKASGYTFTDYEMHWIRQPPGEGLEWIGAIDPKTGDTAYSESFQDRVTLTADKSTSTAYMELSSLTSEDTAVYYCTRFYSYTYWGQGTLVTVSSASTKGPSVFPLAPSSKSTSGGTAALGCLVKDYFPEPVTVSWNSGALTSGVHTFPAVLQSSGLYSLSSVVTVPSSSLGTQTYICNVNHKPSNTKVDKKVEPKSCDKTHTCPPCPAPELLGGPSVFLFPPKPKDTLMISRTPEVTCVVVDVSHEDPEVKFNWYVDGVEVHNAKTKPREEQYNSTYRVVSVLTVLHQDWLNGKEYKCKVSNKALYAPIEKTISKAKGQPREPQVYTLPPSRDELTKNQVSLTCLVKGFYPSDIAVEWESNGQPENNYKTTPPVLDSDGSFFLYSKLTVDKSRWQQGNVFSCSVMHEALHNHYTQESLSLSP
light: B7 light
notes: as for B7
B19: GpH7-B3 variant I332K / GpL16-k0 (antibody, human IgG1)
heavy: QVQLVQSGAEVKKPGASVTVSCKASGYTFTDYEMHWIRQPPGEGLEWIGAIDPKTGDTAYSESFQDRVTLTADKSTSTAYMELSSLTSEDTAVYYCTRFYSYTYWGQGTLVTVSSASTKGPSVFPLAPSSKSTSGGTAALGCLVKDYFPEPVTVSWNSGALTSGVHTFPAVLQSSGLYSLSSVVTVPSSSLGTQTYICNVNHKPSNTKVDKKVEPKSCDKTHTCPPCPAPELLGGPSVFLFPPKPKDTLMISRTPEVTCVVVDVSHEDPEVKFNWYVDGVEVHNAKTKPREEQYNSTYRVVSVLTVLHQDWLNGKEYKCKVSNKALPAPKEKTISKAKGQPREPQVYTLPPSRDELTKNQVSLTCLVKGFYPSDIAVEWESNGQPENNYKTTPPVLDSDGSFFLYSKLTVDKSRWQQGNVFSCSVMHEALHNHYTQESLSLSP
light: B7 light
notes: as for B7

Key:
human FcγRIIa type R = biological target: T1, human FcγRIIa type R (human, UniProt P12318 36-217); assay: SPR (Biacore), antibody captured on chip, FcγR as analyte; binding amount divided by that of IL6R-F652/IL6R-L, times 100
T1 construct: also called Fcγ RIIaR; FcγRIIa(R)
T1 chain: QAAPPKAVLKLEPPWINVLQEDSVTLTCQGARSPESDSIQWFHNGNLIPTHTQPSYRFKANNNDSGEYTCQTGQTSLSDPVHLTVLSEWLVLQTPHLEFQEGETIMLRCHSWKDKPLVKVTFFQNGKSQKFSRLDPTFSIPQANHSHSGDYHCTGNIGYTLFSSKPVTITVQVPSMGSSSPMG

human FcγRIIb [1] = biological target: T2, human FcγRIIb (human, UniProt P31994 43-217); assay: as above
T2 construct: also called FcγIIB; FcγRIIb extracellular region
T2 sequence: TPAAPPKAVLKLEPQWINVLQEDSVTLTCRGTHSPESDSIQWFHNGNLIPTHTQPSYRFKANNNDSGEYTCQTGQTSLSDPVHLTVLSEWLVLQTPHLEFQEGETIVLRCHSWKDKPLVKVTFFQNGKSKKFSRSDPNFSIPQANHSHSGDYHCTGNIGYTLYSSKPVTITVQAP

human FcγRIIb [2] = biological target: T3, human FcγRIIb (human, UniProt P31994 43-217, limits assumed); assay: ratio of this variant's SPR KD for FcγRIIaH to its KD for FcγRIIb
T3 construct: also called FcγIIB; hFcgRIIb
T3 sequence: T2 sequence
From the text: Furthermore, KD(IIaR)/KD(IIb) and KD(IIaH)/KD(IIb) in the table respectively represent the value obtained by dividing the KD value of each variant for FcγRIIaR by the KD value of each variant for FcγRIIb, and the value obtained by dividing the KD value of each variant for FcγRIIaH by the KD value of each variant for FcγRIIb.

human FcγRIIb [3] = biological target: T4, human FcγRIIb (human, UniProt P31994 43-217, limits assumed); assay: SPR (Biacore), antibody captured on chip, FcγR as analyte, HBS-EP+, 25°C;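 note: FcγR binding response divided by the amount of captured antibody, then expressed relative to the reference antibody ×100, with antibodies captured via immobilized Protein A, A/G, L or antigen peptides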
T4 construct: Analyte in solution on Biacore; also called FcgRIIb; hFcgRIIb
T4 sequence: T2 sequence
Method: (§1) Interaction between each modified antibody and Fcγ receptor prepared in the manner described above was analyzed using the Biacore T100 (GE Healthcare), Biacore T200 (GE Healthcare), Biacore A100 or Biacore 4000. HBS-EP+ (GE Healthcare) was used for the running buffer, and measurements were carried out at 25° C. The chips used were chips in which antigen peptides, Protein A (Thermo Scientific), Protein A/G (Thermo Scientific) or Protein L (ACTIGEN or BioVision) were immobilized on the Series S Sensor Chip CM5 (GE Healthcare) or Series S Sensor Chip CM4 (GE Healthcare) by amine coupling, or chips in which preliminarily biotinylated antigen peptides were allowed to interact and then immobilized on the Series S Sensor Chip SA (certified) (GE Healthcare). The target antibodies were captured on these sensor chips, Fcγ receptor diluted with the running buffer was allowed to interact, followed by measurement of the amount of bound antibody. The amounts bound were compared between antibodies. However, since the amount of Fcγ receptor bound depends on the amount of captured antibody, the values used for comparison were first corrected by dividing the amount of Fcγ receptor bound by the captured amount of each antibody. Through reaction with 10 mM glycine-HCl at pH 1.5, the sensor chips were regenerated by washing off antibody captured on the sensor chips and used repeatedly.
(§2) Binding strength was evaluated according to the following method based on the results of analyzing the interaction with each FcγR. […] That value was then further multiplied by 100, and the resulting value was used as an indicator of relative binding activity to each FcγR.

human FcγRIIIa(F) = biological target: T5, human FcγRIIIa(F) (human, UniProt P08637 17-208, limits assumed); assay: as above
T5 construct: also called FcgRIIIaF; hFcgRIIIa(F)
Method: as §1, §2

human FcγRIa = biological target: T6, human FcγRIa (human, UniProt P12314 16-292, limits assumed); assay: as above
T6 construct: Analyte in solution on Biacore; also called FcgRIa; hFcgRIa
Method: as §1, §2

human FcγRIIa(H) = biological target: T7, human FcγRIIa(H) (human, UniProt P12318 36-217); assay: as above
T7 construct: Analyte in solution on Biacore; also called FcγRIIa type H; FcgRIIaH
T7 sequence: T1 chain with R133H
Method: as §1, §2

human FcγRIIa(R) = biological target: T8, human FcγRIIa(R) (human, UniProt P12318 36-217); assay: as above
T8 construct: Analyte in solution on Biacore; also called FcγRIIa type R; FcgRIIaR
T8 chain: T1 chain
Method: as §1, §2

T5 sequence (P08637 other isoform, or with tags, fused parts or gaps limits assumed): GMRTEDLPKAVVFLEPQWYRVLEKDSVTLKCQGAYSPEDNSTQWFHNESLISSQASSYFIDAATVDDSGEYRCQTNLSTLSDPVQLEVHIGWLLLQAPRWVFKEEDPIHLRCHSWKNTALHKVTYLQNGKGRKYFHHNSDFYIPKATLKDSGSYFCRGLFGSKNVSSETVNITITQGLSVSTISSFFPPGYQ
T6 sequence (P12314 16-292 limits assumed): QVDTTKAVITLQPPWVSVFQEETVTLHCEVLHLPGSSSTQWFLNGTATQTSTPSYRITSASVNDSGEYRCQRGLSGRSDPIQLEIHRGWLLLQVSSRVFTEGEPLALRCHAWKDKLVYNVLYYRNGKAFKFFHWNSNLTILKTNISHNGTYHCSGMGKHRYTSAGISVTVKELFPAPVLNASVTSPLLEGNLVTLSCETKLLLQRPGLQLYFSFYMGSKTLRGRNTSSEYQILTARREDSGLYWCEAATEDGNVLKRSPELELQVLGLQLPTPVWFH

Binder	relative binding activity for FcγRIIaR (human FcγRIIa type R)	relative binding activity for FcγRIIb (human FcγRIIb [1])	KD (IIaH)/KD (IIb) (human FcγRIIb [2])	relative binding activity (% of GpH7-B3/GpL16-k0) (human FcγRIIb [3]) [%]	relative binding activity (% of GpH7-B3/GpL16-k0) (human FcγRIIIa(F)) [%]	relative binding activity (% of GpH7-B3/GpL16-k0) (human FcγRIa) [%]	relative binding activity (% of GpH7-B3/GpL16-k0) (human FcγRIIa(H)) [%]	relative binding activity (% of GpH7-B3/GpL16-k0) (human FcγRIIa(R)) [%]
B1	100 % of the binding amount of IL6R-F652/IL6R-L	100 % of the binding amount of IL6R-F652/IL6R-L						
B2	222 % of the binding amount of IL6R-F652/IL6R-L	127 % of the binding amount of IL6R-F652/IL6R-L						
B3	175 % of the binding amount of IL6R-F652/IL6R-L	112 % of the binding amount of IL6R-F652/IL6R-L						
B4	240 % of the binding amount of IL6R-F652/IL6R-L	106 % of the binding amount of IL6R-F652/IL6R-L						
B5			34.7					
B6	138 % of the binding amount of IL6R-F652/IL6R-L	101 % of the binding amount of IL6R-F652/IL6R-L						
B7				-1	1	60	1	0
B8				41	14	100	26	34
B9				0	4	92	1	1
B10				55	38	95	59	64
B11				39	56	87	25	42
B12				0	0	94	0	1
B13				-2	-1	33	0	-1
B14				23	61	95	70	28
B15				-3	0	58	0	0
B16				-2	-1	23	-1	-1
B17				63	34	98	58	72
B18				-3	0	76	0	-1
B19				27		77	59	12
